This series in a line: label from the status in PepcDB records.
Consider “MSTSDSCYNTGYILRICAIAALGGILFGYDTAVISGAIGSLTSYFHLSPAETGWAVSCVVVGCVIGSFSAGYLSKRFGRKKSLMVSALLFTISAVGTSLSYTFTHFVIYRIIGGLAVGLAATVSPMYMSEVSPKNMRGRALSMQQFAIVFGQILIFYVNYKIASIAADTWLIELGWRYMFAAGIIPCILFCILVFLIPESPRWMMMIGREEETLKILTKISNEEHARHLLADIKTSLQNDQLNAHQKLNYRDGNVRFILILGCMIAMLQQVTGVNVMMYYAPIVLKDVTGSAQEALFQTIWIGVIQLIGSIIGAMIMDKMGRLSLMRKGTIGSIIGLLLTSWALYSQATGYFALFGMLFFMIFYALSWGVGAWVLISEIFPNRMRSQGMSISVGFMWMANFLVSQFFPMINENPYLLSHFHGAFPMWIFAICCIFSYFFICRYLPETKGISLEKMESVVLAKRRKKLQPIQTERYSD”, for which the protein production entry is “failed”.

Take “MSTSFTMIGGEGPNSYREHSKYQGALVIAAKEKINEAISTKLDIDFTSNLVNIADFGCSSGPNTFTAVQTLIDAVENKYKKESNIEGIEFQVFFNDSSNNDFNTLFKTLPPARLYFASGVPGSFFGRVLPKNSLHVGVSSYSLHFVSKVPKEIKDRDSLVWNKDIHCSGSSKEVVKLYLGQYKIDVGSFLTARAQELVSGGLLLLLGSCRPTGVQMFETVEGMMIDFIGSSLNEIANQGLIDQQKLDTFKLPIYAPNVDELKQIIEDNKCFTIEAFEKISHAKGEYPLDPEYLTSAFKVTVGGSVASLFGQDGMEKTYELVKEKTQEMLPQIAKAKPGMQYLIVLRRN”: the protein production result is “failed”. For “MSTSLTIRLVAEADWPALHALDQIIWTKKNTPAEIQPLSLAAYQEKMKDETIFVAISGQQLAGFIEVHPPTSLAAHQKQWLLSIGVSPDFQDQGIGGSLLSYIKDMAEISGIHKLSLRVMATNQEAIRFYEKHGFVQEAHFKEEFYINGHYCDDYQYAYFIEK” the value was “not failed”. Under “MSTSPADTARYNRFVADLFGMMAYGELSAFERFSADARYSPTLHDRAVLGRIAVVEFRHYELVSARLEAMGIDAEDAMLPFQAAVDYFHSRTRPADWYESLMKAYVIDTVSADFYRAISRYVDAGTRDVIEQIQASDETTEVLRERLRSALADDPRLASRLALWGRRLLGEALTQAQRVSYEHAFLGSLIGGEDSAAAKELVSGLIAGLAEKHSKRMTQLGLTG” stands “not failed”. As to “MSTVETPVYVPRTVVHKFGGTSVADADCYRHVTRLLLAREETVQVTIVSAMKGVTDTLIALAEQAANHSPDWQVLWQQTRTRHCDAAQALLGEHAATLQDWLNTRFNELHEMLVALSVIGMLPSEVLDRLQGLGEVYSAQLLGHYLQSQGEDCVVLDARQVLVVSPGEFGAEVDWATSAQHLAHWRMQHPQRRVVVTGFVASDRTGRAITLGRNGSDYSGAIFAALFEADELHIWTDVDGVMSADPRVVPDAVQLDALSYDEACELAYFGAKVVHPQTMSPVMKRGVPIIIRNTFQPGHPGTRITADSVVSGSVKGLTLSPGLAVLNLEGTGLIGVPGTAERVFAALRNARLSVVMISQGSSEHSICCLVHQTEAERARDALLYAFAHELAIGHVQRVQLTNNISVLAAVGDGMAGHLGVAARLFESLRRAHVNILAIAQGSSERNISVAIDSQQATKALRAAHAAFWLSPQTFSIGVIGPGHVGEALLDQLCAAQQQLLSKANLDLRLRAIVSRRRMLLDERGLGSDWRHAFAAAPEAVDLDAFTAHLQAAHLPHAVIIDCSGSAEVADRYADWLAAGIHVVTPNKQAGSGPLHRYHAIRAAADASGARFRYEATVGAGLPVITTLRDLMDTGDSVTSIEGIFSGTLAWLFNKYDGSVPFSQLIAQARAMGYTEPDPRDDLSGVDVARKLVILARDAGRDISLEDVAVESLVPETLCQLSVADFMERLNEIDATFAERLAAAKQRGCVLRYVAQLSPGHVPSVSLIELPSDHAFVNLRLTDNVVQFTTRRYSENPLIVQGPGAGPEVTAAGVFADLLRVAAGEGARL”, the protein production result is given as “failed”. On to “MSTVNGANIQSEEQHTGGCSAGCSGGSTGGSTDGSTGGNTQQGCSCDTHDEQRDGSVAAQTFGEEGPVKTLGRIGSKLVVLSGKGGVGKSTVAVNLAVGLARAGRKVGLLDVDVHGPSVPRLLGLTGTRPMIGEDAMYPVGWRNNLRVMSLGFFLPDPEQAVIWRGPVKMGLIRHFLTEVRWGDLDHLVVDCPPGTGDEPLSVLQLLGTDAQAVIVTTPQGVAVDDVRRSVGFCRELGNPILGIVENMGGYVCPKCGELTPLFPAGGGEALAAEQGVTFLGRIPLHPDLTSAGDAGRSLYEADAAHPIVRALAPIVERAAATLHASDIRHESTTGPQSEAAPGTGKTAATMPTAPTRNESCAPATNHPDTNGDTTMKIAIPVAGDVLCQHFGHCERFALIDVDPATGSVTGRNDVTPPPHEPGLLPVWLSEKGANLVIAGGMGARARALLEERGVKVLIGAPAAAPEAIVAAHMAGTLTLGANTCDH”, for which the protein production entry is recorded as “failed”.

Turning to “MSTYTARLGGRTHSFPSLAALLAAASPERSGDRLAGLAADSAEARVAARWALAEVPLARFLAEPVIPYEDDDVTRLIVDTHDARAFAPVAGLCVGEFREWLLSDAADAGSLAALAPGLTPEMVAAVSKLMGNADLVAVARKARVVTAFRSTIGLPGRLATRLQPNHPTDDPAGVAAALLDGLLLGSGDAVIGINPATDSPKAVRDLLELLDGVIRRYAIPTQSCVLCHVTTSIDLMERGAPVDLVFQSIAGTQAANASFGVTLGLLDEAYDAARGLGRGTAGQNALYFETGQGSALSANAHHGVDQQTVEARAYAVARRYDPLLVNTVVGFIGPEYLYDGRQILRAALEDHFCGKLLGLPMGLDICYTNHADADDDDIATMLTMLGVAGASFVICTPGGDDIMLNYQSASYHDALYLREVLGLRPAPEFEDWLSRIGLLDDAGAIRDVTGTAHPLTAIGRELAA”, the protein production entry is “failed”. Turning to “MSVADSYFDELFRNNDDPWAFKQRWYERRKRALTLAALPRERYRAIFEPGCANGELSADLAERCDMLVCCDTSTQAVELARQRLADVPHARVVQARLPHQWPAGQFDLIVFSELGYYLDAADLHRLIDCALAALSPDGQLLACHWRPDIEGCPLNAQAVHAILAERLSMHRLFSHHEQDFLLDLWSRDGTSVAELEHHHHHH”, the protein production result is recorded as “not failed”. For the sequence “MSVDAVEIETLRKTVEDYFCFCYGKALGKSTVVPVPYEKMLRDQSAVVVQGLPEGVAFKHPENYDLATLKWILENKAGISFIIKRPFLEPKKHVGG”, the protein production result is reported as “not failed”. For “MSVEAAKNARELLLKEYRAVLSTHSKKWPGFPFGSVVPYCLDAEGRPLILISRIAQHTHNLQADPRCSMLVGERGAEDIQAVGRLTLLAEARQLAEEEVAAAAERYYRYFPESADYHRVHDFDFWVLQPVQWRFIGGFGAIHWLAAERVPLANPFAGEAERGMVEHMNSDHAAAIAHYVELAGLPAHAAAQLAGIDTEGFHLRIGQGLHWLPFPAACGNPGAVRQALVQLARAERWPTVEPEQG”, the protein production result is reported as “not failed”. As to “MSVEQLNQLNIEELIITLENVLKILKQYSKVSNSSITFKEFVDYWFEAYASTAVKPSTQKRYRQLLKPALRAIGNKPLNKVKPLDIQNIYIALAGTQSNCTILKLHRLLHEIFKHAQMWEYISDNPVKKVVPPTPEKKVFDVWDVETAKRFLEIIKDEPIYYPALIALHTGMRAGEILSLKWCDVNFETRVISIVKSERKNRGLKTVNLKTKTSKRAVYMNDILYKELKNLYEITKPKPDDFVCPRLPTGNLTVNYLSRKFKKLVKKHNFPLIRFHDLRHTFATLMLSLGVNTKIVAEILGHSDIKLTADTYSHVLPTMQEEAMKEFVKLWK”, the protein production result is listed as “failed”. With “MSVFSGFPASPPDAILNLTVLYNADTNPKKVNLGVGAYRDESGKPWILPAVKEAEAIISSDLSKYNKEYPPVAGFPLFLEAAQFLMFGKDSKAAQEGRIASCQSLSGTGSLHIGFEFLHLWMPKAEFYMPSTTWPNHYGIYDKVFNKLKVPYKEYTYLRKDGELEIDFSNTKKDIQSAPEKSIFLFHACAHNPSGIDFTEAQWKELLPIMKEKKHIAFFDSAYQGFATGSFEADAFAVRMFVDAGVEVLVAQSFSKNFGLYGERIGCLHVVHAGVEGSVEKNKALSAAMVSGMTLQIRKTWSMSAIHGAYIVQVIVHDKRLLQMFYDNVKEMSARIHRMRSLLHASLAKRKTPGPGSKGTWDHILTAIGMFTFTGLTPEHVDYLKEKWSIYLVKAGGRMSMCGLTESNCDYVAEAIHDAVTKLPFKK”, the protein production result is “not failed”. Consider “MSVGIDSLDNDHKKLIAILAQLMSAKNEKLGQDDIDVIFERLEGYCLSHFAREEALLAKIDYKQLEAHKLSHQAFIKKIPQLKEQWFAKVTESEAVKDKIILFLQQWLIKHILEEDLDYVPAIHCFQEFSRYEKDKKAKHPWLRFFSIKLSHCLILSHRVLITTLLPVAAVLLLCFFILKDNYQRYDSISKVLGLNSVIEQVNGISHSLQAERGLSTGYTSSNYRSFAKQLRQRRKSTDAKIQYFLWLLEQSANQEIKVSVSRYMTNFQEIVANLSRHRMHLDQKIVGFEETYHAYTQLIGQLLSVSDHLVHIEIGSSHANDISAINAILRYKEFMGQIRAIGMKMAENHQENIYGNVEVSLLIGKQLNTLLIFKNAANSAQKSICGHYCDAFALRQHLESSYLETMQFEDKDVRAARWFKVMSAKVDNLNSVVQRLINEFDGQIYIESQKLKKEGYLIILAMLIFLLVAIFFALVLNYSIISPVRKLTYALNDMSEGQNNIHFNHIDSKDEIGSMQLAFEKLRRKLLQGDVYKATVSQQQKEIKYRKSQQDHFQQLALTDALTGAVNRHHFNEVLDQEIANVNNHGSPLSIMLLDIDHFKSVNDRYGHGVGDEVLVMFYQTCVEAVRSSDVVARIGGEEFVIIMPNTQLVNAQKFAERLRQKIAKLELNIANNQISVTVSIGVSQWQSEYFTNAETFVAHADKSLYQAKNSGRNKVVVAQQ”, for which the protein production entry is “failed”.

For the sequence “MSVGVEVLTISFVVIVIAAVIGFLARSKNVSLEQWAVGGRNIGALLIWFLLAGEIYTAFTFLGVPGYAYAFGAPAYYALSYGVLAYLTSYFILPKIWRISKKKNIMTQPDFFKERYQSTLLATIVAVVGVVFMVPYLELQVSAITDILEVMGYNVIMPAYVMIITFVLTAGYVIMNGLRSATFTAFFKDGLALIVIFSALIVIPAVQFGDLNNMMHRMVTNYSEYLYFPGHSELGLSWFVSVVLMSALGFFMWPHSFQSYISAKNDNVLKKNAVFLPVYNVLLVITVFMGFAALLYNPHLSNADDAFLIVARASFPSWWNGVVAGAITLGSMVPASVLLIASSTIISKNLYKDLINKKASDSSVKFIAQVFVAIITGVALLFAIEFPALFVNLLLLGYSGITLFFPGIVMGITWRKVTAVGVISGIITGLIVNAVFFLPLSSYSHIIYPGLVGLFADTVVTILVSLVTKAPSGEVIEEFVTA”, the protein production result is “failed”. For “MSVIKIEKALKLDKVIFVDVRTEGEYEEDHILNAINMPLFKNNEHNEVGTIYKMQGKHEAIQKGFDYVSYKLKDIYLQAAELALNYDNIVIYCARGGMRSGSIVNLLSSLGVNVYQLEGGYKAYRNFVLEY” the value was “not failed”. Consider “MSVILLGLGRYVEEIVEVVSAISDVVLVERDEARLRAFLEKAPVANLRALPGSATDVGLWKEVDLEAAEAVISFLSVEATLDVARLLRKALGYRSKIVHVSKARPDPQAVRELDLEVVSIPEVLGAILRNLLQGQGIVRYPVGIGLRKGEVVEVLITESSPAVYARLRELRQPGARVALVYREGSPILPRADFRVQPGDRLLVVGDPRGVEIFVGAVIRGEPTFPRRFGSVGALCRAEDEEALYLKERLKVRDWVEACEDPKGVAEVGVFLARDRDWVRRAFQEGYPFPSFHLRGTHPYRSILVSANTEALSPLLASAMDLARIFGSEVYVLFVSRVEAFMPPEEKELLENLKVLVERARKTSGLEVHLIRKEGNPVRETLRLLKGKFNLLALGYTPGRRTAFFRPYVPQLLAQASPVSTLLVPEVNLER”, for which the protein production entry is recorded as “failed”.

The values above are taken from a protein production outcome set (Wang et al. 2014).
